Data published in patent publication US20220332804A1 (CSL INNOVATION, published 2022).

Experiments:
Test in all cases: SPR, KD relative to WT C2;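 further: biacore SPR at 37 °C, anti-C2 mAbs captured via immobilised goat anti-human IgG, C2 alanine or serine surface mutants as analytes, 1:1 model fitted, double-referenced sensograms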
human C2 E433A = target: T1, human C2 E433A (human, UniProt P06681 21-752)
T1 sequence: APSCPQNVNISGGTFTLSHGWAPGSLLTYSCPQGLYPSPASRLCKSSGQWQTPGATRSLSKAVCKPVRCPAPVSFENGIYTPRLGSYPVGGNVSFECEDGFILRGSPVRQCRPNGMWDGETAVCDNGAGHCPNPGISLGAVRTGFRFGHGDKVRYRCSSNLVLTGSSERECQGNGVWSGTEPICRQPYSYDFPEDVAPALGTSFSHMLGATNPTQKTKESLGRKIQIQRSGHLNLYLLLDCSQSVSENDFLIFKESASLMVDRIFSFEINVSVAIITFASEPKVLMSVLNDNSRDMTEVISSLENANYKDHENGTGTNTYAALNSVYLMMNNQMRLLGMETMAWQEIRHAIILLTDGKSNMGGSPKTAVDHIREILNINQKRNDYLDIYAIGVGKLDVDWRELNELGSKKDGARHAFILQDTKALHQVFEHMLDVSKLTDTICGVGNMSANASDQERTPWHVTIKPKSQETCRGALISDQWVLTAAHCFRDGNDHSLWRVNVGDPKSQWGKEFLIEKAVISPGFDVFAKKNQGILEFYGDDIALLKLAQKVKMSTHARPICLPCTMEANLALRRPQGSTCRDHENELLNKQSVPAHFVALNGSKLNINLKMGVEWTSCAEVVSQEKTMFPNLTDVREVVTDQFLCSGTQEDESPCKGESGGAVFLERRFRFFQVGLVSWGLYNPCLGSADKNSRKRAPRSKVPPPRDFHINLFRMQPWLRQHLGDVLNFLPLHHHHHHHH

human C2 E275A = target: T2, human C2 E275A (human, UniProt P06681 21-752)
T2 sequence: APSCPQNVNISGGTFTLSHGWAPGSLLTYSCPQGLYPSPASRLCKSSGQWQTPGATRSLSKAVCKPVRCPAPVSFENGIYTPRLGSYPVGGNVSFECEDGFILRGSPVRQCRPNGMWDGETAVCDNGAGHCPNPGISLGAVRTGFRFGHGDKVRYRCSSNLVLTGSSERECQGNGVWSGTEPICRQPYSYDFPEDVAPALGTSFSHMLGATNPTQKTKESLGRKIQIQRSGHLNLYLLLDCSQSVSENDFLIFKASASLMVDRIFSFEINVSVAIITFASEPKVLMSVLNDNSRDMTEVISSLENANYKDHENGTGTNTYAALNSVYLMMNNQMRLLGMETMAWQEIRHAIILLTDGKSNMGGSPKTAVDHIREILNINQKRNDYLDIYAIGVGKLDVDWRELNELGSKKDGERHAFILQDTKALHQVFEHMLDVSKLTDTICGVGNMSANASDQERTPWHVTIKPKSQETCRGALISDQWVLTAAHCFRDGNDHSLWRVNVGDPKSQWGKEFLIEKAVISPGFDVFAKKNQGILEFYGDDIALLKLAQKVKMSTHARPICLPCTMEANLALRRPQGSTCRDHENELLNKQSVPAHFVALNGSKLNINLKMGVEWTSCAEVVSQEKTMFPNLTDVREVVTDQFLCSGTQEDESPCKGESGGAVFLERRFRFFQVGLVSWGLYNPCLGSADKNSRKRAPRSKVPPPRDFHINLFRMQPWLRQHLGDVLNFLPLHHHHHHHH

human C2 K274A = target: T3, human C2 K274A (human, UniProt P06681 21-752)
T3 sequence: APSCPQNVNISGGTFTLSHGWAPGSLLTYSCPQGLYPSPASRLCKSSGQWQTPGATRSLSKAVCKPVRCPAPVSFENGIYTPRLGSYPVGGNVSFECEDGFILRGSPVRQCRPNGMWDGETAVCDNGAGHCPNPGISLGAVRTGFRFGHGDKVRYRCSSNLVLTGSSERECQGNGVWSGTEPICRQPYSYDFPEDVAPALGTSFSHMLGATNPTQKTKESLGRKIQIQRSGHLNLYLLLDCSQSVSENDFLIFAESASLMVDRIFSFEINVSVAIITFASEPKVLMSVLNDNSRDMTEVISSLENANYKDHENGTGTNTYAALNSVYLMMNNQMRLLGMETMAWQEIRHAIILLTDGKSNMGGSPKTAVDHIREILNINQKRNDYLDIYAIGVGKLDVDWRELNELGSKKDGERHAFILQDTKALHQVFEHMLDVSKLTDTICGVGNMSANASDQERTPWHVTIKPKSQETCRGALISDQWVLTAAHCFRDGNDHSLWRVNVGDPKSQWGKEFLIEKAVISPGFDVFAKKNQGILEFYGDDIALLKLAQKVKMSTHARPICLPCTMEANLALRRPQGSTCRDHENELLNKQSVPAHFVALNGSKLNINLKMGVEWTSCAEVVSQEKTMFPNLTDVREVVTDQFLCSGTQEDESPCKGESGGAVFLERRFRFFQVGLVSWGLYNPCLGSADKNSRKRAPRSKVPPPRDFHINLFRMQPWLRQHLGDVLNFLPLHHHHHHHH

human C2 E686A = target: T4, human C2 E686A (human, UniProt P06681 21-752)
T4 sequence: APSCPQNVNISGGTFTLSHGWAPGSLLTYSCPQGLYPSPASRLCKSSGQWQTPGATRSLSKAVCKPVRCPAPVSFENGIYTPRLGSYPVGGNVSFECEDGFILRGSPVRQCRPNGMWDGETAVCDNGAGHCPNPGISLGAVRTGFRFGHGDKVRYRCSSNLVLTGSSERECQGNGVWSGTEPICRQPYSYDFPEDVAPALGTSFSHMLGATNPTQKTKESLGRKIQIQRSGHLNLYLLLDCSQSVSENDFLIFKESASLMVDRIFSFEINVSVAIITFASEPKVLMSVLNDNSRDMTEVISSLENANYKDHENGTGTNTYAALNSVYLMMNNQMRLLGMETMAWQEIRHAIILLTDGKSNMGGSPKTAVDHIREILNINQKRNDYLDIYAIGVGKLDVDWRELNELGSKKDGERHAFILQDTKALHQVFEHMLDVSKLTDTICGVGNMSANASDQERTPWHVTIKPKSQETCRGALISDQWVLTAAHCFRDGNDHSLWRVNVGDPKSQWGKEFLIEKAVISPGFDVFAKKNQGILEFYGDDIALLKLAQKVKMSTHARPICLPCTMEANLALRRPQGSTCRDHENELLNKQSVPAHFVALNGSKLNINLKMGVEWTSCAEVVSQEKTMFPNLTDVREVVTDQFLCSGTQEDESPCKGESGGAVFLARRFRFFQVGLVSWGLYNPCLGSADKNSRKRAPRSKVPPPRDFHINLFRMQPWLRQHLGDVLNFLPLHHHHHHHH

B1: RF16-226 (antibody, human IgG4 S228P, lambda)
heavy: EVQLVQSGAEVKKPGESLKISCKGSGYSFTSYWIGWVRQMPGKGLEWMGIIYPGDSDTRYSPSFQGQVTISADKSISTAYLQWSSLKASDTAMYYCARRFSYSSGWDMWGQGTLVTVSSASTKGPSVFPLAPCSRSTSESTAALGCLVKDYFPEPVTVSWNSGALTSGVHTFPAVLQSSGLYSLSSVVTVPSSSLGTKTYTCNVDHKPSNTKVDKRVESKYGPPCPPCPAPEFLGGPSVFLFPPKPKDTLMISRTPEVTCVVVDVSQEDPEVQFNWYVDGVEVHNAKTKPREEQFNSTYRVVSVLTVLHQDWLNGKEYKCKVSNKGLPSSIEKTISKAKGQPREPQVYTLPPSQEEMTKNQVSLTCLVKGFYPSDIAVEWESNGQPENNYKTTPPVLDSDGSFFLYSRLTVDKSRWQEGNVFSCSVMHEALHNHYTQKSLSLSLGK
light: SYELTQPPSVSVSPGQTARITCSGDALTSKYVAWYQQKSGLAPLLVIYEDTRRPSGIPAKFSGSSSGSVATLTISGAHGDDEADYYCYSTDASGHQRVFGGGTKLTVLSQPKAAPSVTLFPPSSEELQANKATLVCLISDFYPGAVTVAWKADGSPVKAGVETTKPSKQSNNKYAASSYLSLTPEQWKSHRSYSCQVTHEGSTVEKTVAPTECS
notes: pH-dependent anti-C2 antibody from a phage display library; also called WT
Fold diff (human C2 E433A): 0 fold
Fold diff (human C2 E275A): 1 fold
Fold diff (human C2 K274A): 29 fold
Fold diff (human C2 E686A): 5 fold
